From PMC5353611

Tests used:
[1] = biological target: His-tagged C-propeptide of the human procollagen α1(I) chain (C1A1His), chain of homo-CPI (human); experiment: SDS-PAGE (non-reducing and reducing) + MALDI-TOF mass spectrometry; purified homo-CPI; ~85 kDa non-reducing, 30 kDa reducing; disulfide-bonded trimer
[2] = biological target: His-tagged C-propeptide of the human procollagen α2(I) chain (C1A2His) (human); experiment: co-purification (Co2+ affinity by the His-tag of the α2 chain, gel filtration) with SDS-PAGE and MALDI-TOF mass spectrometry; α1 and α2 C-propeptides co-expressed in HEK 293T (plasmids 2:1); hetero-CPI separated from untagged homo-CPI by the His-tag of the α2 chain; with or without removal of the tag by TEV protease; Superdex S200

Substance	stoichiometry N [1]	stoichiometry N (α1 chains per α2 chain) [2]
His-tagged C-propeptide of the human procollagen α1(I) chain (C1A1His), chain of homo-CPI (domain or fragment)	3	
Non-tagged C-propeptide of the human procollagen α1(I) chain (C1A1) (domain or fragment)		2
